From article PMC5626764 (Nature Communications, 2017)

T1: SHG-labeled wildtype NiV G ectodomain (Nipah virus, UniProt Q9IH62 71-602)
T1 sequence: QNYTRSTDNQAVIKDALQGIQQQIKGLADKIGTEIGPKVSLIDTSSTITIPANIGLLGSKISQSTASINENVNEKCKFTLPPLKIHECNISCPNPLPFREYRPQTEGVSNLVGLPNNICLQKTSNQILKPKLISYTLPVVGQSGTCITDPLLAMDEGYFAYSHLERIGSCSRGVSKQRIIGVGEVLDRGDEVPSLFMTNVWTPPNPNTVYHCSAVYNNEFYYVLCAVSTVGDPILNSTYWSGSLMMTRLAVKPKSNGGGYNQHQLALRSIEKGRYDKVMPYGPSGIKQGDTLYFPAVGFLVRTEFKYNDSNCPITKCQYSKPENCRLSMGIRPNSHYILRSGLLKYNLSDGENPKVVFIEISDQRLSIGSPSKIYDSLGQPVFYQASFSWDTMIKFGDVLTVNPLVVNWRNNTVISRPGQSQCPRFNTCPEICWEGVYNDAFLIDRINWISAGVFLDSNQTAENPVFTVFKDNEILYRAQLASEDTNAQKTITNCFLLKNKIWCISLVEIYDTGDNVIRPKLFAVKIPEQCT

B1: Wildtype NiV G ectodomain (Nipah virus attachment glycoprotein G, residues 71-602, N-terminal His6-tag) (domain or fragment)
chain: QNYTRSTDNQAVIKDALQGIQQQIKGLADKIGTEIGPKVSLIDTSSTITIPANIGLLGSKISQSTASINENVNEKCKFTLPPLKIHECNISCPNPLPFREYRPQTEGVSNLVGLPNNICLQKTSNQILKPKLISYTLPVVGQSGTCITDPLLAMDEGYFAYSHLERIGSCSRGVSKQRIIGVGEVLDRGDEVPSLFMTNVWTPPNPNTVYHCSAVYNNEFYYVLCAVSTVGDPILNSTYWSGSLMMTRLAVKPKSNGGGYNQHQLALRSIEKGRYDKVMPYGPSGIKQGDTLYFPAVGFLVRTEFKYNDSNCPITKCQYSKPENCRLSMGIRPNSHYILRSGLLKYNLSDGENPKVVFIEISDQRLSIGSPSKIYDSLGQPVFYQASFSWDTMIKFGDVLTVNPLVVNWRNNTVISRPGQSQCPRFNTCPEICWEGVYNDAFLIDRINWISAGVFLDSNQTAENPVFTVFKDNEILYRAQLASEDTNAQKTITNCFLLKNKIWCISLVEIYDTGDNVIRPKLFAVKIPEQCT

Legend:
[1] = target: T1, SHG-labeled wildtype NiV G ectodomain; experiment: second harmonic generation (SHG); conditions: both partners purified
[2] = target: B1; experiment: ELISA; conditions: both partners purified
[3] = target: the molecule itself; experiment: negative stain electron microscopy

Binder	ΔSHG [1]	Kd [2]	stoichiometry N [3]
ephrinB2-Fc (human ephrinB2 residues 1-229, Factor XA cleavage site, human IgG1 residues 100-330) (Fc fusion, also called dimeric ephrinB2; dimeric receptor) IVLEPIYWNSSNSKFLPGQGLVLYPQIGDKLDIICPKVDSKTVGQYEYYKVYMVDKDQADRCTIKKENTPLLNCAKPDQDIKFTIKFQEFSPNLWGLEFQKNKDYYIISTSNGSLEGLDNQEGGVCQTRAMKILMKVGQDASSAGSTRNKDPTRRPELEAGTNGRSSTTSPFVKPNPGSSTDGNSAGHSGNNILGSEVALFA	-12.9%	0.088 nM	–
Stag-ephrinB2-167 (S-tagged monomeric ephrinB2 globular domain, residues 25-167) (domain or fragment, human, UniProt P52799 25-167, looked up) SKSIVLEPIYWNSSNSKFLPGQGLVLYPQIGDKLDIICPKVDSKTVGQYEYYKVYMVDKDQADRCTIKKENTPLLNCAKPDQDIKFTIKFQEFSPNLWGLEFQKNKDYYIISTSNGSLEGLDNQEGGVCQTRAMKILMKVGQD	–	11.9 nM	–
ephrinB2-229 (S-tagged monomeric ephrinB2 ectodomain, residues 25-229) (domain or fragment, human, UniProt P52799 25-229, looked up) SKSIVLEPIYWNSSNSKFLPGQGLVLYPQIGDKLDIICPKVDSKTVGQYEYYKVYMVDKDQADRCTIKKENTPLLNCAKPDQDIKFTIKFQEFSPNLWGLEFQKNKDYYIISTSNGSLEGLDNQEGGVCQTRAMKILMKVGQDASSAGSTRNKDPTRRPELEAGTNGRSSTTSPFVKPNPGSSTDGNSAGHSGNNILGSEVALFA	–	33.2 nM	–
B1	–	–	4
ephrinB2-167 from His6-ephrinB2-167 with the His6-tag removed by enterokinase cleavage (domain or fragment, human, UniProt P52799 25-167, looked up, also called monomeric ephrinB2) SKSIVLEPIYWNSSNSKFLPGQGLVLYPQIGDKLDIICPKVDSKTVGQYEYYKVYMVDKDQADRCTIKKENTPLLNCAKPDQDIKFTIKFQEFSPNLWGLEFQKNKDYYIISTSNGSLEGLDNQEGGVCQTRAMKILMKVGQD	-27.9%	–	–
